# From US20230099801A1, “RESTORATION OF T CELL ACTIVITY VIA THE CD39/CD73 AXIS” (INNATE PHARMA, priority 2017, published 2023)
# “Also recorded” adds a separate entry of the source.
# T1: human CD39 (Homo sapiens, UniProt P49961)
# T1 sequence (P49961 1-510): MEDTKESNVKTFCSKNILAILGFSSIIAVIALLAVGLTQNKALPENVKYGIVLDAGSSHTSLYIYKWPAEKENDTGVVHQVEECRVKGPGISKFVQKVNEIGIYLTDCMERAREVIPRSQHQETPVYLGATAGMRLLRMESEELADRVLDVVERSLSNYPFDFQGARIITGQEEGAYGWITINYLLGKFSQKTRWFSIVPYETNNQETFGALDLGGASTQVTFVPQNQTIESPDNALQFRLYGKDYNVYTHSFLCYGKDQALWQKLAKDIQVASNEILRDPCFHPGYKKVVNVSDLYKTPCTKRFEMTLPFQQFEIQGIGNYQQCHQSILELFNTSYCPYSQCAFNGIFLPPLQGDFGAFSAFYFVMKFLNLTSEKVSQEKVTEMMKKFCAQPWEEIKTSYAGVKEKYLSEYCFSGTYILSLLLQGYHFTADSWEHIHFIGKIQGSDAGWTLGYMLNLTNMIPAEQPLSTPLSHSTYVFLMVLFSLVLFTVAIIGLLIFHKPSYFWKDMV
# T2: Human CD39-L3 (NTPDase3, ENTPD3) (Homo sapiens, UniProt O75355)
# T2 sequence (O75355 1-529): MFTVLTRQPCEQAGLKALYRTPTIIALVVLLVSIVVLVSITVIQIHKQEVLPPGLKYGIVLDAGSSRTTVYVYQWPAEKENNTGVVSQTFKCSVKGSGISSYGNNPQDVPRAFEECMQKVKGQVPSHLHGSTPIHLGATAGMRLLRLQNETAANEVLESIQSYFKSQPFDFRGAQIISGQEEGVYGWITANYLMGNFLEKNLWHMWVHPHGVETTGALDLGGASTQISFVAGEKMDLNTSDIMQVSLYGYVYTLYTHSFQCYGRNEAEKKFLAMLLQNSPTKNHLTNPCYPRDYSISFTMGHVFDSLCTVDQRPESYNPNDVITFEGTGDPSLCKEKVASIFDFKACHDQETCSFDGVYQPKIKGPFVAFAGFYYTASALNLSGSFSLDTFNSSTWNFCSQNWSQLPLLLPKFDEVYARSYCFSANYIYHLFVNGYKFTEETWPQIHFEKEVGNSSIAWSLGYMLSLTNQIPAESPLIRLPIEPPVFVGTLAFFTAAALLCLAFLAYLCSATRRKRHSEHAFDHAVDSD
# T3: human Ramos lymphoma cells (Homo sapiens, UniProt P49961)
# T3 construct: host or cells: Ramos human lymphoma cells
# T3 sequence (P49961 1-510): T1 sequence (P49961 1-510)
# B1: I-394: anti-CD39 antibody, VH SEQ ID NO: 6, VL SEQ ID NO: 7; heavy/light chains SEQ ID NOS: 52 and 53 (antibody)
# heavy: EVQLQQSGPELVKPGASVKMSCKASGYTFTDYNMHWVKQSHGRTLEWIGYIVPLNGGSTFNQKFKGRATLTVNTSSRTAYMELRSLTSEDSAAYYCARGGTRFAYWGQGTLVTVSAASTKGPSVFPLAPSSKSTSGGTAALGCLVKDYFPEPVTVSWNSGALTSGVHTFPAVLQSSGLYSLSSVVTVPSSSLGTQTYICNVNHKPSNTKVDKRVEPKSCDKTHTCPPCPAPEAEGAPSVFLFPPKPKDTLMISRTPEVTCVVVDVSHEDPEVKFNWYVDGVEVHNAKTKPREEQYNSTYRVVSVLTVLHQDWLNGKEYKCKVSNKALPSSIEKTISKAKGQPREPQVYTLPPSREEMTKNQVSLTCLVKGFYPSDIAVEWESNGQPENNYKTTPPVLDSDGSFFLYSKLTVDKSRWQQGNVFSCSVMHEALHNHYTQKSLSLSPGK
# light: DIVLTQSPASLAVSLGQRATISCRASESVDNFGVSFMYWFQQKPGQPPNLLIYGASNQGSGVPARFRGSGSGTDFSLNIHPMEADDTAMYFCQQTKEVPYTFGGGTKLEIKRTVAAPSVFIFPPSDEQLKSGTASVVCLLNNFYPREAKVQWKVDNALQSGNSQESVTEQDSKDSTYSLSSTLTLSKADYEKHKVYACEVTHQGLSSPVTKSFNRGEC
# modifications: Chimeric homo sapiens mus musculus
# Experiments:
# [1] = tested on: CHO cells expressing cynomolgus CD39 (CHO-cyCD39); experiment: Antibody titration on CHO-cyCD39 cells by flow cytometry; assay type: binding, cynomolgus (Macaca fascicularis)
# Procedure: (§1) Cells were incubated with various concentration of unlabeled anti-CD39 antibody from 30 μg/ml to 5×10^−4 μg/ml, for 30 minutes at 4° C. After washes, cells were incubated with Goat anti-mouse H+L labeled secondary antibody for 30 min at 4° C.
# human CD39 = target: T1, human CD39; experiment: ELISA titration on recombinant human CD39; assay type: binding
# Procedure: (§2) Wells were washed in TBS Tween 20, and further saturated 2H at RT in TBS Blocking buffer. Dose range concentration of primary antibody was incubated in TBS blocking buffer for 2h at RT. Wells were washed in TBS Tween 20. […] Optical density was measured on Enspire™ at OD=450.
# [2] = tested on: monocyte-derived DC (moDC); experiment: Activation of dendritic cells in presence of ATP; assay type: cell-based, human; conditions: ATP at each of 0.125 mM, 0.25 mM or 0.5 mM; I-394 at 10 μg/ml
# Procedure: While ATP has pro-inflammatory activity, CD39-mediated catabolism of ATP is believed to be able to impair dendritic cell (DC) activation, in turn altering a broader adaptive immune response against tumor antigen. In order to evaluate whether CD39 blockade using anti-CD39 antibodies could overcome CD39-mediated alteration of dendritic cell (DC) activation in the presence of ATP, we incubated monocyte-derived DC (moDC) with anti-CD39 antibodies in the presence of ATP.
# Briefly, human monocytes were purified from human healthy blood and differentiated into MoDC in presence of GM-CSF and IL-4 during 6 days. […] LPS (Invivogen, 10 ng/ml) was used as positive control. To assess resulting effect of ATP-mediated DC activation on CD4 T cells activation, ATP-activated DC were washed and then incubated with allogenic CD4 T cells (ratio 1 MoDC/4 T cells) for a mixed lymphocytes reaction (MLR) during 5 days. T cells activation and proliferation were analyzed through CD25 expression and Cell Trace Violet dilution by flow cytometry (FIG. 8).
# CD8 T cells = experiment: T cell proliferation assay in presence of added ATP, CD8 T cells; assay type: cell-based, human
# Procedure: Peripheral blood from healthy donors was obtained from EFS, and mononuclear cells were isolated on a Ficoll gradient. Lymphocytes were further enriched on a 52% Percoll gradient by collection of the cell pellets and stained with a Cell Trace dye (Thermofisher) following the TDS provided by the manufacturer. […] Inhibition of T cell proliferation was achieved by addition of ATP (200 μM). T cell proliferation and ability of Abs to block immune suppressive effect of AMP were assessed by flow cytometry by quantifying the dye dilution in the proliferating T cell subset.
# Percentage of proliferating T cells vs. anti-CD73 Ab concentration is plotted in graphs using GraphPad Prism software.
# [3] = target: T2, Human CD39-L3 (NTPDase3, ENTPD3); experiment: ELISA titration on CD39-L3; assay type: binding
# Procedure: as §2
# [4] = target: T3, human Ramos lymphoma cells; experiment: Antibody titration on Ramos cells by flow cytometry; assay type: binding
# Procedure: as §1
# allogenic CD4 T cells = experiment: Mixed lymphocytes reaction (MLR) of ATP-activated MoDC with allogenic CD4 T cells; assay type: cell-based, human; conditions: MoDC activated in presence of ATP
# Procedure: Briefly, human monocytes were purified from human healthy blood and differentiated into MoDC in presence of GM-CSF and IL-4 during 6 days. Then MoDC were activated in presence of ATP (Sigma, 0.25-1 mM) during 24 hours and DC activation were assessed by analyzing CD80, CD83 and HLA-DR expression by flow cytometry. […] LPS (Invivogen, 10 ng/ml) was used as positive control. To assess resulting effect of ATP-mediated DC activation on CD4 T cells activation, ATP-activated DC were washed and then incubated with allogenic CD4 T cells (ratio 1 MoDC/4 T cells) for a mixed lymphocytes reaction (MLR) during 5 days. T cells activation and proliferation were analyzed through CD25 expression and Cell Trace Violet dilution by flow cytometry (FIG. 8).
molecule,measurement,setting,value
B1,binding to cells expressing cynomolgus CD39,[1],bound; also recorded: binds
same,binding to human CD39 in ELISA,human CD39,bound; also recorded: binds
same,moDC activation as assessed by HLA-DR or CD83 expression,[2],permitted moDC activation; also recorded: lead to moDC activation
same,potentiation of anti-CD73 antibodies in restoring CD8 T cell proliferation,CD8 T cells; added ATP 200 μM,strongly potentiation
same,"enhancement of CD8 T cell proliferation, alone without anti-CD73","CD8 T cells; concentrations of 0.1 μg/ml and 1 μg/ml, added ATP",remarkable enhancement
same,binding to CD39-L3 in ELISA,[3],not to any of the human isoforms
same,binding to Ramos lymphoma cells,[4],bound; also recorded: binds
same,"T cell proliferation and activation (CD25 expression, Cell Trace Violet dilution) in MLR",allogenic CD4 T cells,higher T cell proliferation and activation
